Reference: patent US20240287172A1 (SCIRHOM, published 2024)

Key:
[1] = target: T1, hiR2-FL-R543Q-T7 (human, UniProt Q6PJF5 1-856); assay: FACS, MEF-DKO cells, 3 µg/ml
T1 sequence: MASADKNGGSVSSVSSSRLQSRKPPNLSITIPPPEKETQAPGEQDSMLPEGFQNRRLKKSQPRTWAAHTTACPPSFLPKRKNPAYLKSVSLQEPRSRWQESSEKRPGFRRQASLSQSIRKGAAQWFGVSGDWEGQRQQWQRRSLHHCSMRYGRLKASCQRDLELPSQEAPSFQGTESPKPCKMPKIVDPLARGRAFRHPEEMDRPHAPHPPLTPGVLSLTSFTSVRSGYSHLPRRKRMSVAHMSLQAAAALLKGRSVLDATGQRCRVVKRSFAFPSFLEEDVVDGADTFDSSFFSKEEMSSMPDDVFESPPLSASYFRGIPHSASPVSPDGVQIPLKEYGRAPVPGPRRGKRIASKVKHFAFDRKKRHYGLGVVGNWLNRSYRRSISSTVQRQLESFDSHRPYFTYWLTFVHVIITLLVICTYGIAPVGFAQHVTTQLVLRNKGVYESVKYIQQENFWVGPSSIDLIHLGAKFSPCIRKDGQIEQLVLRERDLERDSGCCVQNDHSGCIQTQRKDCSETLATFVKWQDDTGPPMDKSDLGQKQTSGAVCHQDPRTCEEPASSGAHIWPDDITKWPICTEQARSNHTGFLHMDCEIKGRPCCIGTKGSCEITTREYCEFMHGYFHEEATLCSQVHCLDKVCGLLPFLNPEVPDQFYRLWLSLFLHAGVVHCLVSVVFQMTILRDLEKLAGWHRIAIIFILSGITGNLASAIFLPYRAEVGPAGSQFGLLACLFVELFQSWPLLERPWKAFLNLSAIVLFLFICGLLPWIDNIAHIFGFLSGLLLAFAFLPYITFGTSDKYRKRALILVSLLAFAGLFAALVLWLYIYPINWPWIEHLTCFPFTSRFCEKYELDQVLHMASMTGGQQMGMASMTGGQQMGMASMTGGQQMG
Description: (§1) In brief, immortalized MEF-DKO-hiR2-FL-WT-T7 cells, MEF-DKO-miR2-FL-WT-T7 cells and MEF-DKO-hiR2-FL-R441K-T7, MEF-DKO-hiR2-FL-K443R-T7, MEF-DKO-hiR2-FL-V459I-T7, MEF-DKO-hiR2-FL-G481Q-T7, MEF-DKO-hiR2-FL-L488R-T7, MEF-DKO-hiR2-FL-L493I-T7, MEF-DKO-hiR2-FL-D496T-T7, MEF-DKO-hiR2-FL-H505R-T7, MEF-DKO-hiR2-FL-Q512L-T7, MEF-DKO-hiR2-FL- R513K-T7, MEF-DKO-hiR2-FL-D528N-T7, MEF-DKO-hiR2-FL-P533-T7, MEF-DKO-hiR2-FL-M534S-T7, MEF-DKO-hiR2-FL-G540S-T7, MEF-DKO-hiR2-FL-R543Q-T7, MEF-DKO-hiR2-FL-T544P-T7, MEF-DKO-hiR2-FL-G546A-T7, MEF-DKO-hiR2-FL-A547V-T7, MEF-DKO-hiR2-FL-R582Q-T7, MEF-DKO-hiR2-FL-F588L-T7, MEF-DKO-hiR2-FL-M591I-T7, MEF-DKO-hiR2-FL-E594K-T7, MEF-DKO-hiR2-FL-E626D-T7, MEF-DKO-hiR2-FL-L657I-T7, and MEF-DKO-hiR2-FL-H835Y-T7 cells were harvested with 10 mM EDTA in PBS, washed and resuspended in FACS buffer (PBS, 3% FBS, 0.05% sodium azide), and seeded in Nunc U-bottom 96-well plates (Thermo Fisher Scientific, USA) at approximately 3×10⁵ cells per well.
(§2) To pellet cells and remove supernatants, the plates were centrifuged at 1,500 rpm and 4° C. for 3 minutes. For primary staining, cells were resuspended in 100 μl per well of either FACS buffer alone (controls) or the purified antibodies 3, 5, 16, 22, 34, 42, 43, 44, 48, and 50 of the invention at 3 μg/ml FACS buffer and incubated on ice for 1 hour. Afterwards, plates were centrifuged at 1,500 rpm and 4° C. for 3 minutes and washed twice with 200 μl per well of FACS buffer. For secondary staining, cells were spun down and resuspended in 100 μl per well of PE-conjugated goat anti-mouse IgG F(ab′)2 detection fragment (Dianova, Germany) diluted 1:100 in FACS buffer. Protected from light, the cell suspensions were incubated on ice for 1 hour. Plates were then centrifuged at 1,500 rpm and 4° C. for 3 minutes and washed three times with 200 μl per well of FACS buffer. Finally, cells were resuspended in 150 μl per well of FACS buffer and analyzed using a BD Accuri™ C6 Plus flow cytometer (Becton Dickinson, Germany).

[2] = target: T2, hiR2-FL-T544P-T7 (human, UniProt Q6PJF5 1-856); assay: FACS, MEF-DKO cells, 3 µg/ml
T2 sequence: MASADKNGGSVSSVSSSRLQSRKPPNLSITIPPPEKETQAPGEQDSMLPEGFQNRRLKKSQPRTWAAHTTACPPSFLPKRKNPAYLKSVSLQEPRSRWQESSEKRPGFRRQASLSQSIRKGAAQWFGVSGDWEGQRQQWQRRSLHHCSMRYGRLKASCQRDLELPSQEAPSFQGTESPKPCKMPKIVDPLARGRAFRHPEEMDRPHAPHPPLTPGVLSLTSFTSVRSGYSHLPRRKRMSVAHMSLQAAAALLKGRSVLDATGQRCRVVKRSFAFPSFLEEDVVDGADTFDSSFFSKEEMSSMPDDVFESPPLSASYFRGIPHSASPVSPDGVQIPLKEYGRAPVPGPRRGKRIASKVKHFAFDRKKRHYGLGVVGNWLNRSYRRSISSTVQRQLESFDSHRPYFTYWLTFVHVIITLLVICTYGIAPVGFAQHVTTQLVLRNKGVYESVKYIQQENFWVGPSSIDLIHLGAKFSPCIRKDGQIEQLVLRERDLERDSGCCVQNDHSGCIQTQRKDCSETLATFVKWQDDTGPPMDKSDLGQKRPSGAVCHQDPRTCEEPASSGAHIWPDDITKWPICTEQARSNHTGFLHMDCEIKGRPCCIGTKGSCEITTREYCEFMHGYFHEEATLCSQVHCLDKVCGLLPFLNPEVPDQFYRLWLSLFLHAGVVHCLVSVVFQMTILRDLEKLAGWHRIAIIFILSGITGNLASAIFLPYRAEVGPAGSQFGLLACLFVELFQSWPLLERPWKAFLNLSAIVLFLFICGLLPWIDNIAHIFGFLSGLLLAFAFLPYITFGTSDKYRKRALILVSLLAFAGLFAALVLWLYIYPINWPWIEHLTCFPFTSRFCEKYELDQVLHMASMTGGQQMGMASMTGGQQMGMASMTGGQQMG
Description: as §1, §2

Binder	loss of binding vs wild type [1]	loss of binding vs wild type [2]
antibody 5 (antibody, V domains shown, mouse IgG, kappa light chain; also called clone #5; purified antibody 5) VH: QVTLKESGPGILQPSQTLSLTCSFSGFSLSTFGMGVGWIRQPSGKGLEWLAHIWWDDEKYYNSALKSRLTISKATSKNQAFLKIANVDTADTATYYCARISNYGSNYWYFNVWGTGTTVTVSS VL: QVVLTQSPALMSASPGEKVTMTCSAGSSVSCMYWYQQKPGSSPRVLIYDTSNLASGVPARFTGSGSGTSYSLTISRMEAEDAASYYCQQWNSYPLTFGAGTKLELK	≥ 95%	≥ 60%
antibody 22 (antibody, V domains shown, mouse IgG, kappa light chain; also called clone #22; purified antibody 22) VH: QVTLKESGPGILQPSQTLSLTCSFSGFSLSTFGMGVGWIRQPSGKGLEWLAHIWWDDEKYYNSALKSRLTISKATSKNQVFLKIANVDTADTATYYCARISNYGSNYWYFNVWGTGTTVTVSS VL: QVVLTQSPALMSASPGEKVTMTCSAGSSVSYMYWYQQKPGSSPRVLIYDTSNLASGVPARFTGSGSGTSYSLTISRMEAEDAATYYCQQWNSYPLTFGAGTKLELK	≥ 60%	≥ 30%
antibody 42 (antibody, V domains shown, mouse IgG, kappa light chain; also called clone #42; purified antibody 42) VH: QVTLKESGPGILQPSQTLSLTCSLSGFSLSTFGRGVGWIRQPSGKGLEWLAHIWWDDEKYYNPALKSRLTISKDTSKNQVFLRIANVDTADTATYYCARIQNYGSNYWYFDVWGTGTTVTVSS VL: LIVLTQSPAIMSASPGEKVTMTCGATSRISYMFWYQQKPGSSPRVLIYDTSNLASGVPVRFSGSGSGTSYSLTISRVEAEDVATYYCQQWNSYPLTFGAGTKLELK	≥ 95%	≥ 60%
antibody 3 (antibody, V domains shown, mouse IgG, kappa light chain; also called clone #3; purified antibody 3) VH: QVTLKESGPGILQPSQTLSLTCSFSGFSLTTFAMGIGWVRQPSGKGLEWLAHIWWDGEKYNNPVLKSRLTISKDTSKNQVFLRIANVDTPDTATYYCARISSIYYIIDNWGQGTSVTVSS VL: DIVLTQSPATLSVTPGHSVSLSCRASQSISNNLHWYQKKSHESPRLLIKYVSQSISGIPSRFSGSGSGTDFTLSINSVETEDFGMYFCQQSYNWPLTFGAGTKLELK	≥ 60%	≥ 60%
antibody 34 (antibody, V domains shown, mouse IgG, kappa light chain; also called clone #34; purified antibody 34) VH: QVTLKESGPGILQPSQTLSLTCSFSGFSLSTFSLGVGWIRQSSGKGLEWLAHIWWDDEKYYNPALKSRLTISKDTSKNQVFLKIANVDAADTATYYCARAYYSKSYYALDYWGQGTSVTVSS VL: DIQMTQSPSSLSASLGERVSLTCRASQEISGYLSWLQQKPDGTIKRLIYAASTLDSGVPKRFSGSRSGSDYSLAISSLESEDFADYYCLQYANFPFTFGSGTKLEIK	≥ 95%	≥ 60%
antibody 43 (antibody, V domains shown, mouse IgG, kappa light chain; also called clone #43; purified antibody 43) VH: QVALKESGPGILQPSQTLSLTCSFSGFSLSTFGMGVGWIRQSSGKGLEWLANIWWDDDKYYNPALKSRLTISKDASKNQAFLKIANVDTADTATYYCARIGNYGSNYWYFDVWGTGTTVTVSS VL: QIVLTQSPAIMSASPGERVTMTCSANSRISYMYWYQQKPGSSPRLLIYDTSNLASGVPVRFSGSGSGTSYSLTISRMEAEDAATYNCQQWSSYPLTFGAGTKLELK	≥ 95%	≥ 60%
antibody 44 (antibody, V domains shown, mouse IgG, kappa light chain; also called clone #44; purified antibody 44) VH: QVTLKESGPGILQPSQTLSLTCSFSGFSLSTFGMGVGWIRQPSEKGLEWLAHIWWDDDKYYNPALKSRLTISKDTSKNQIFLKITNVDTAETATYYCSRIGNYGSNYWYFDVWGTGTTVTVSS VL: QIVLTQSPAVMSASPGEKVTMTCTASSSVYYMYWYQQTPGSSPRLLIYDTSNLASGVPVRFSGSGSGTSYSLTISRMEAEDAATYYCQQWNTYPLTFGAGTKLELK	≥ 60%	≥ 30%
antibody 48 (antibody, V domains shown, mouse IgG, kappa light chain; also called clone #48; purified antibody 48) VH: QVQLQQSGTELVRPGTSVKVSCKASGYAFTNYLIEWVKQRPGQGLEWIGVINPGSGFTKYNEKFKGKATLTADKSSSTVYMHLSSLTSEDSAVYFCARGLYRAMDYWGQGTSVTVSS VL: DIQMTQSPASQSASLGESVTITCLASQTIATWLAWYQQKPGKSPQLLIYGATTLADGVPSRFSGGGSGTKFSFKISSLQAEDFVSYYCQQLYSTPYTFGGGTKLEIK		≥ 30%
antibody 50 (antibody, V domains shown, mouse IgG, kappa light chain; also called clone #50; purified antibody 50) VH: QVQLQQSGAELVRPGASVKVSCKASGYAFSNYLIEWVKQRPGQGLEWIGVINPGSGFTKYNEKFKGKATLTADKSSSTAYMQLSSLTSEDSAVYFCARGLYRAMDYWGQGTSVTVSS VL: DIQMTQSPASQSASLGESVTITCLASQTIGTWLAWYQQKPGKSPQLLIYAAASLADGVPSRFSGGGSGTKFSFKISSLQAEDFVNYYCQQIYSTPYTFGGGTKLEIK	≥ 30%	≥ 30%
